The target of assay [1] is human whole saliva (human). In words: ELISA: 1:2 dilution of whole saliva coated, 65 kDa protein added, detected with rat anti-65 kDa serum. (In general: ELISA stands for enzyme-linked immunosorbent assay.)
The target of assay [2] is human salivary α-amylase (Type IX A, Sigma Chemical Co.) (human). In words: ELISA: amylase (10.0 µg/ml) coated, 65 kDa protein added, detected with rat anti-65 kDa serum.
Chain of human salivary α-amylase (Type IX A, Sigma Chemical Co.) (human) (P0DUB6 16-511): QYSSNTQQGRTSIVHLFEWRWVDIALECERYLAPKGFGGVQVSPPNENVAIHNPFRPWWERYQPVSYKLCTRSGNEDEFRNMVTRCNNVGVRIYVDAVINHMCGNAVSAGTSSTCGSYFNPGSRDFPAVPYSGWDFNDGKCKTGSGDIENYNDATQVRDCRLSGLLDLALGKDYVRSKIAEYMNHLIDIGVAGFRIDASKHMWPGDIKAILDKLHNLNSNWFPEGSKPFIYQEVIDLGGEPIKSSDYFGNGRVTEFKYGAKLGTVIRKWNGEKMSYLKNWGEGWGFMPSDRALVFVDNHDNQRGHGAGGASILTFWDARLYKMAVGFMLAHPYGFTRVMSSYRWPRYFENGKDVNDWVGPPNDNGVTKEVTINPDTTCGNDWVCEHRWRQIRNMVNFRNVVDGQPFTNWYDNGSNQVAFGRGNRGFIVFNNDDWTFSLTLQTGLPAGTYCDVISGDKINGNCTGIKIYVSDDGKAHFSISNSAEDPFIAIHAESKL

For “purified 65 kDa fimbrial protein of S. mutans A32-2 (serotype c) (enzyme)”, the O.D. (ELISA absorbance at 490 nm) came out at 0.26 O.D in assay [1] and 0.25 O.D in assay [2].
